Target: T1, PaFAN1 (Pseudomonas aeruginosa, UniProt Q9I2N0 1-559)
T1 sequence: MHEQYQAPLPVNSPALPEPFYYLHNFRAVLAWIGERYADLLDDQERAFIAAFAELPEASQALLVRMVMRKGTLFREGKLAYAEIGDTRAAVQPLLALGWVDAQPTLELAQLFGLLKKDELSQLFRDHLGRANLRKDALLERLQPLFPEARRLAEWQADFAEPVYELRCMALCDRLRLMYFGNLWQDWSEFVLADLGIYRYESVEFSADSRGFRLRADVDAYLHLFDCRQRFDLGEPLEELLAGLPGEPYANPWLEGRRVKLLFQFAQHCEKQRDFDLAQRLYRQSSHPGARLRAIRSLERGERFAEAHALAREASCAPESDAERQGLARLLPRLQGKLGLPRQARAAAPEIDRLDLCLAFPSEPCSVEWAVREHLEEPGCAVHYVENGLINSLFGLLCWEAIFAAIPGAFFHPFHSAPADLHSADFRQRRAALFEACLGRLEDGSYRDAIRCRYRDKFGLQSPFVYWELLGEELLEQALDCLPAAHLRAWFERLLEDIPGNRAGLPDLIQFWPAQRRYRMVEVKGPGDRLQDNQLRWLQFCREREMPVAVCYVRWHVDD
Experiment: crystal structure

B1: 5' flap DNA, 22-base template, 4-nt 5' flap (crystal I) (structured_DNA)
DNA 1: GAATGTGTGTCTCAATCCCAAC
DNA 2: GTTGGGATTG
DNA 3: AACCAGACACACATTC
B1: binds.
